The values below come from patent US20210347873A1 (SHANGHAI PHARMAEXPLORER, published 2021).

Test [1] concerns the target T1, human BLyS (full length, arginine to histidine at position 132) on CHO-K1 cells (human, UniProt Q9Y275 1-285).
T1 construct: also called hBLyS; CHO-K1 hBLyS
Briefly: flow cytometry, CHO-K1 hBLyS cells, antibody 0.534 nM. (In general: In flow cytometry, cells or beads pass a laser one at a time.)

Test [2] concerns the target T1, human BLyS (full length, arginine to …). Briefly: flow cytometry, CHO-K1 hBLyS cells, antibody 2.67 nM.
In test [3] the target is T2, cynomolgus BLyS (full length, arginine to histidine at position 132) on CHO-K1 cells (cynomolgus, UniProt Q9Y275 1-285 (human entry)).
T2 construct: also called cyno BLyS; CHO-K1 cynoBLyS
T2 chain: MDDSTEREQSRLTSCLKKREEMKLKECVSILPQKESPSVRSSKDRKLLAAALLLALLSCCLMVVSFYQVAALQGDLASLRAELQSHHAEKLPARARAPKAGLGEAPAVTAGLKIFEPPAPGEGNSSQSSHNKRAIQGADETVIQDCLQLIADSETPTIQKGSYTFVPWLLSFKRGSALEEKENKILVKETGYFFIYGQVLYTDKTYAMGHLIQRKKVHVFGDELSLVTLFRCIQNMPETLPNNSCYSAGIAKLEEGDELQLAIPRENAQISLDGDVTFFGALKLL
As to the kind of experiment: flow cytometry, CHO-K1 cynoBLyS cells, antibody 0 nM.

The target in test [4] is T2, cynomolgus BLyS (full length, arginine …). As to the kind of experiment: flow cytometry, CHO-K1 cynoBLyS cells, antibody 0.107 nM.
Test [5] concerns the target T1, human BLyS (full length, arginine to …). Briefly: flow cytometry, CHO-K1 hBLyS cells, antibody 0.0213 nM.
For test [6] the target is unchanged. Briefly: flow cytometry, CHO-K1 hBLyS cells, antibody 66.7 nM.
For test [7] the target is unchanged. Briefly: flow cytometry, CHO-K1 hBLyS cells, antibody 0.107 nM.
For test [8], the target named is T2, cynomolgus BLyS (full length, arginine …). As to the kind of experiment: flow cytometry, CHO-K1 cynoBLyS cells, antibody 2.67 nM.

T1 sequence (Q9Y275 whole entry R130H): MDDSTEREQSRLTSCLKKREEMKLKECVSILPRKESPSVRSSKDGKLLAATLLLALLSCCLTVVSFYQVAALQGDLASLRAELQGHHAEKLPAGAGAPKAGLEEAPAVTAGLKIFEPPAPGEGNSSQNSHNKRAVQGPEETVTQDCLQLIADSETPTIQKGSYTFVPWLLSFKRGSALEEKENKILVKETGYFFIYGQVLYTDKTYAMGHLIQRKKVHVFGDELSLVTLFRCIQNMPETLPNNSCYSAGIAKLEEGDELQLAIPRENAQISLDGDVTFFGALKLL

B1: L1D12 (antibody, V domains shown)
VH: QVQLVQSGGGLVQPGGSLRLSCAASGFTVSSNYMSWVRQAPGKGLEWVSVIYSGGSTYYADSVKGRFTISRDNSKNTLYLQMNSLRAEDTAVYYCARGFHDILTGYGMDVWGQGTTVTVSS
VL: SSELTQDPAVSVALGQTVRITCQGDSLRNYYAGWYQQKPGQAPVLVIYGKNNRPSGIPDRFSGSSSGNTASLTITGTQAEDEADYYCSSRDNSGTHLVEFGGGTKLTVL
notes: From a human naive scFv phage library; also called human BLyS antibody L1D12; LID12
As for B1, the MFI came out at 413 MFI in test [1]; 503 MFI in test [2]; 21.2 MFI in test [3]; 364 MFI in test [4]; 89.5 MFI in test [5]; 550 MFI in test [6]. Moreover, the values for the MFI in test [7] and in test [8] were 205 MFI and 1170 MFI, respectively.
